# Data taken from the RNAGym collection of RNA variant scans (doi:10.1073/pnas.2313332121).
# B1: TPR t1 (parent)
# chain: GACCAAUCUGCCCUCAGAGCUCGAGAACAUCUUCGGAUGCAGAGGAGGCAGGCUUCGGUGGCGCGAUAGCGCCAACGUCCUCAACCUCCAAUGCAUCCCACCACAUGAUGAUGCCUGAAGAGCCUUGGUUUUUUG
# Variants of: B1
# Test: polymerase ribozyme fitness, log enrichment relative to wild type (log ratio); higher = more active; in vitro selection for triplet polymerase activity
# Outline: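 Each subunit of a heterodimeric triplet polymerase ribozyme was mutagenized into a library by PCR, transcribed, and subjected to one round of in vitro selection, run in triplicate. Libraries were annealed with a biotinylated primer, the partner subunit and triplets, incubated frozen at −7 °C, and extended constructs were gel-excised, captured on streptavidin beads and recovered by RT-PCR. Input and output libraries were sequenced on Illumina, keeping genotypes with ≥10 input reads and ≥1 read per output. Fitness is log base 2 of genotype enrichment divided by wild-type enrichment, from inverse-variance-weighted replicate averages.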
row,Variant,polymerase ribozyme fitness (log ratio)
1,GACCAAUCUGCCCUCAGAGCUCGAGAACAUCUUCGGAUGCAGAUGAGGCAGGCUUCGGUGGCGCGAUAGCGCCAACGUCCUCAACCUCCAAUGCAUCUCACCACAUGAUGAUGCCUGAAGAGCCUUGGUUUUUUG [G44U C98U],-2.19
2,GACCAAUCUGCCCUCAGAGCUCGAGAACAUCUUCGGAUGCAGAUGAGGCAGGCUUCGGUGGCGCGAUAGCGCCAACGUCCUCAACCUCCAAUGCAUCUCACCACAUGAUGAUGCCUGAAGAGCCGUUGUUUUUUG [G44U C98U U125G G127U],-3.43
3,GACCAAUCUGCCCUCAGAGCUCGAGAACAUCUUCGGAUGCAGAUGAGGCAGGCUUCGGUGGCGCGAUAGCGCCAACGUCCUCAACCUCCAAUGCAUCCCACCACAUGAUGAUGCCUGAAGAGACUUGGUUUUUUG [G44U C123A],0.184
4,GACCAAUCUGCCCUCAGAGCUCGAGAACAUCUUCGGAUGCAGAUUAGGCAGGCUUCGGUCGCGCGAUAGCGCCAACGUCCUCAACCUCCAAUGCAUCCCAUCACAUGAUGAUGCCUGAAGGGCCUUGGUUCUUUG [G44U G45U G60C C101U A121G U131C],-0.695
5,GACCAAUCUGCCCUCAGAGCUCGAGAACAUCUUCGGAUGCAGAUGAGACAGGCUUCGGUGGCGCGAUAGCGCCAACGUCCUCAACUUCCAAAGCAUCCCACCACAUGAUGAUGCCUGAAGAGCCUUGGUUUUUUG [G44U G48A C86U U92A],-4.3
6,GACCAAUCUGCCCUCAGAGCUCGAGAACAUCUUCGGAUGCAGAUGAGGCAGACUUCGGUGGCGCGAUAGCGCCAACGUCCUCAACCUCCAAUGCAUCCCACCACAUGAUGAUGCCUGAAGAGCCUUGGUUUUUUG [G44U G52A],-0.705
7,GACCAAUCUGCCCUCAGAGCUCGAGAACAUCUUCGGAUGCAGAUGAGGCAGCCUUCGGUGGCGCGAUAGCGCCAACGUCCUGAACCUCCAAUGCAUCCCACCACAUGAUGAUACCUGAAGAGCUUUGGUUUUUUG [G44U G52C C82G G113A C124U],-3.3
8,GACCAAUCUGCCCUCAGAGCUCGAGAACAUCUUCGGAUGCAGAUGAGGCAGGCUUCGGUGACGCGAUAGCGCCAACGUCCUCAACCUCCAAUGCAUCCUACCACAUGAUGAUGCCUGAAGAGCCUUGGUUUUUUG [G44U G61A C99U],-4.01
9,GACCAAUCUGCCCUCAGAGCUCGAGAACAUCUUCGGAUGCAGAUGAGGCAGGCUUCGGUGUCGCGAUAGCGCCAACGUCCUCAACCUCCAAUGCAUCCCACCACAUGAUGUUGCCUGAAGAGCCUUGGUUUUUUG [G44U G61U A111U],-3.66
10,GACCAAUCUGCCCUCAGAGCUCGAGAACAUCUUCGGAUGCAGAUGAGGCAGGCUUCGGUGGCACGAUAGCGCCAACGACCUCAACCUCCAAUGCAUCCCACCACAUGAUGAUGCCUCAAGAGCCUUGGUUUUUUG [G44U G63A U78A G117C],-6.55
11,GACCAAUCUGCCCUCAGAGCUCGAGAACAUCUUCGGAUGCAGAUGAGGCAGGCUUCGGUGGCCCGAUAGCGUCAACGUCCUCAACCUCCAAUGCAUCCCACCACAUGAUGUUGCCUGAAGAGCCUUGGUUUUUUG [G44U G63C C72U A111U],-5.44
12,GACCAAUCUGCCCUCAGAGCUCGAGAACAUCUUCGGAUGCAGAUGAGGCAGGCUUCGGUGGCGCGAUAUCGCCAACGUCCUCAACCUCCAAUGCAUCCCACCACAUGAUGAUGCCUGAAGAGCCUUGGUUUUUUG [G44U G69U],-0.207
13,GACCAAUCUGCCCUCAGAGCUCGAGAACAUCUUCGGAUGCAGAUGAGGCAGGCUUCGGUGGCGCGAUAGCACCAACGUCCUCAACCUCCAAUGCAUCCCACCACAUGAUGAUGCCUGAAGAGCCUUGGUGUUUUG [G44U G71A U130G],-3.31
14,GACCAAUCUGCCCUCAGAGCUCGAGAACAUCUUCGGAUGCAGAUGAGGCAGGCUUCGGUGGCGCGAUAGCCCCAACGUCCUCAACCUCCAAUGCAUCCCACCACAUGAUGAUGCCUGAAGAGCCUUGGUUUUUUG [G44U G71C],-2.58
15,GACCAAUCUGCCCUCAGAGCUCGAGAACAUCUUCGGAUGCAGAUGAGGCAGGCUUCGGUGGCGCGAUAGCCCCAACGUCCUCAACCUCCAAUACAUCCCACCACAUGAUGAUGCCUGAAGAGCCUUGGUUUUUUG [G44U G71C G93A],-3.04
16,GACCAAUCUGCCCUCAGAGCUCGAGAACAUCUUCGGAUGCAGAUGAGGCAGGCUUCGGUGGCGCGAUAGCGCCAACAUCCUCAACCUCCAAUGCAUCCCAACACAUGAUGAUGCCUGAAGAGCCUUGGUUUUUUG [G44U G77A C101A],-1.37
17,GACCAAUCUGCCCUCAGAGCUCGAGAACAUCUUCGGAUGCAGAUGAGGCAGGCUUCGGUGGCGCGAUAGCGCCAACGUCCUCAACCUCCAAUUCAUCCCACCACAUGAUGAUGCCUAAAGAGCCUUGGUUUUUUG [G44U G93U G117A],-3.24
18,GACCAAUCUGCCCUCAGAGCUCGAGAACAUCUUCGGAUGCAGAUGAGGCAGGCUUCGGUGGCGCGAUAGCGCCAACGUCCUCAACCUCCAAUGCAUCCCACCACAUGAUCAUGCCUGAAGAGCCUUGGUUUUUUG [G44U G110C],-3.92
19,GACCAAUCUGCCCUCAGAGCUCGAGAACAUCUUCGGAUGCAGAUGAGGCAGGCUUCGGUGGCGCGAUAGCGCCAACGUCCUCAACCUCCAAUGCAUCCCACCACAUGAUGAUGCCUUAAGAGCCUUGGUUUUUUG [G44U G117U],-3.54
20,GACCAAUCUGCCCUCAGAGCUCGAGAACAUCUUCGGAUGCAGAUGAGGCAGGCUUCGGUGGCGCGAUAGCGCCAACGUCCUCAACCUCCAAUGCAUCCCACCACAUGAUGAUGCCUGAAUAGCCUUGGUUUUUUG [G44U G120U],-0.505
21,GACCAAUCUGCCCUCAGAGCUCGAGAACAUCUUCGGAUGCAGAUGAGGCAGGCACCGGUGGCGCGAUAGCGCCAACGUCCUCAACCUCCAAUGCAUCCCACCACAUGAUGAUGCCUGAAGAGCCUUGGUUUUUUG [G44U U54A U55C],-2.01
